Experimental data from the Human Domainome abundance scans (Beltran et al. 2025).
± gives the uncertainty stated by the source.

B1: Metastasis-associated protein MTA3, residues 265 to 317; numbered along this chain, Q9BTC8 (parent)
chain: RDEMEEWSASEASLFEEALEKYGKDFNDIRQDFLPWKSLTSIIEYYYMWKTTD

Variants of: B1
Assay: abundance fitness (aPCA) (normalised: wild type 0, dead -1); higher = more abundant; growth selection in yeast, the domain comes from the species named
Conditions: Homo sapiens

Question: For RDEMEEWSASEASLFEEALEKYGKDFNDIRQDFLPWKSLCSIIEYYYMWKTTD [T40C], which abundance fitness is on record?
Answer: The abundance fitness was -0.328 ± 0.2.

Question: Which abundance fitness does the source give for RDEMEEWSASEASLFEEALEKYGKDFNDIRQDFLPWKSLPSIIEYYYMWKTTD [T40P] here?
Answer: Its abundance fitness is -0.332 ± 0.076.

Question: Which abundance fitness does the source give for RDEMEEWSASEASLFEEALEKYGKDFNDIRQDFLPWKSLVSIIEYYYMWKTTD [T40V] here?
Answer: Its abundance fitness is -0.714 ± 0.087.

Question: Which abundance fitness does the source give for RDEMEEWSASEASLFEEALEKYGKDFNDIRQDFLPWKSLTSIIEYYYWWKTTD [M48W] here?
Answer: The abundance fitness was -0.256 ± 0.12.

Question: Which abundance fitness does the source give for RDEWEEWSASEASLFEEALEKYGKDFNDIRQDFLPWKSLTSIIEYYYMWKTTD [M4W] here?
Answer: The abundance fitness was -0.666 ± 0.37.

Question: Which abundance fitness does the source give for RDEYEEWSASEASLFEEALEKYGKDFNDIRQDFLPWKSLTSIIEYYYMWKTTD [M4Y] here?
Answer: The abundance fitness was -0.797 ± 0.41.

Question: With RDEGEEWSASEASLFEEALEKYGKDFNDIRQDFLPWKSLTSIIEYYYMWKTTD [M4G] as the variant, how does the abundance fitness read?
Answer: Its abundance fitness is -0.947 ± 0.2.

Question: With RDESEEWSASEASLFEEALEKYGKDFNDIRQDFLPWKSLTSIIEYYYMWKTTD [M4S] as the variant, how does the abundance fitness read?
Answer: Its abundance fitness is -0.273 ± 0.19.

Question: Which abundance fitness does the source give for RDEMEEWSCSEASLFEEALEKYGKDFNDIRQDFLPWKSLTSIIEYYYMWKTTD [A9C] here?
Answer: The abundance fitness was -0.564 ± 0.1.

Question: With RDEMEEWSMSEASLFEEALEKYGKDFNDIRQDFLPWKSLTSIIEYYYMWKTTD [A9M] as the variant, how does the abundance fitness read?
Answer: The abundance fitness was -0.909 ± 0.25.

Question: Which abundance fitness does the source give for RDEMEEWSNSEASLFEEALEKYGKDFNDIRQDFLPWKSLTSIIEYYYMWKTTD [A9N] here?
Answer: The abundance fitness was -0.677 ± 0.16.

Question: With RDEMEEWSASEASLFEEALEKYGKDFVDIRQDFLPWKSLTSIIEYYYMWKTTD [N27V] as the variant, how does the abundance fitness read?
Answer: Its abundance fitness is -0.246 ± 0.09.

Question: Which abundance fitness does the source give for RDEMEEWSASQASLFEEALEKYGKDFNDIRQDFLPWKSLTSIIEYYYMWKTTD [E11Q] here?
Answer: The abundance fitness was -0.811 ± 0.11.

Question: Which abundance fitness does the source give for RDEMEEWSASIASLFEEALEKYGKDFNDIRQDFLPWKSLTSIIEYYYMWKTTD [E11I] here?
Answer: Its abundance fitness is -1.1 ± 0.22.

Question: Which abundance fitness does the source give for RDEMEEWSASLASLFEEALEKYGKDFNDIRQDFLPWKSLTSIIEYYYMWKTTD [E11L] here?
Answer: Its abundance fitness is -0.713 ± 0.088.

Question: For RDEMEEWSASTASLFEEALEKYGKDFNDIRQDFLPWKSLTSIIEYYYMWKTTD [E11T], which abundance fitness is on record?
Answer: The abundance fitness was -0.567 ± 0.081.

Question: For RDEMEEWSASPASLFEEALEKYGKDFNDIRQDFLPWKSLTSIIEYYYMWKTTD [E11P], which abundance fitness is on record?
Answer: The abundance fitness was -1.04 ± 0.19.

Question: For RDEMEEWAASEASLFEEALEKYGKDFNDIRQDFLPWKSLTSIIEYYYMWKTTD [S8A], which abundance fitness is on record?
Answer: Its abundance fitness is -0.715 ± 0.18.

Question: With RDEMEEWKASEASLFEEALEKYGKDFNDIRQDFLPWKSLTSIIEYYYMWKTTD [S8K] as the variant, how does the abundance fitness read?
Answer: The abundance fitness was -0.696 ± 0.18.

Question: With RDEMEEWCASEASLFEEALEKYGKDFNDIRQDFLPWKSLTSIIEYYYMWKTTD [S8C] as the variant, how does the abundance fitness read?
Answer: Its abundance fitness is -0.9 ± 0.18.

Question: Which abundance fitness does the source give for RDEMEEWLASEASLFEEALEKYGKDFNDIRQDFLPWKSLTSIIEYYYMWKTTD [S8L] here?
Answer: Its abundance fitness is -0.889 ± 0.12.

Question: With RDEMNEWSASEASLFEEALEKYGKDFNDIRQDFLPWKSLTSIIEYYYMWKTTD [E5N] as the variant, how does the abundance fitness read?
Answer: Its abundance fitness is -0.09 ± 0.25.

Question: Which abundance fitness does the source give for RDEMEEWSASEASLFDEALEKYGKDFNDIRQDFLPWKSLTSIIEYYYMWKTTD [E16D] here?
Answer: The abundance fitness was -0.572 ± 0.27.

Question: With RDEMEEWSASEASLFEEALEKYGKDFNDIRQDFLPWKSLTEIIEYYYMWKTTD [S41E] as the variant, how does the abundance fitness read?
Answer: The abundance fitness was 0.161 ± 0.12.

Question: For RDEMEEWSASEASLFEEALEKYGKDFNDIRQDFLPWKSLTAIIEYYYMWKTTD [S41A], which abundance fitness is on record?
Answer: The abundance fitness was -0.139 ± 0.093.

Question: Which abundance fitness does the source give for RDEMEEWSASEASLFEEALEKYGKDFNDIRQDFLPWKSLTRIIEYYYMWKTTD [S41R] here?
Answer: Its abundance fitness is -0.868 ± 0.13.

Question: With RDEMEEWSASEASLFEEALEKYGKDFNDIRQDFLPWKSLTVIIEYYYMWKTTD [S41V] as the variant, how does the abundance fitness read?
Answer: The abundance fitness was -0.837 ± 0.13.

Question: Which abundance fitness does the source give for RDEMEEWSASEASLFEEALEKYGKDFNDIRQDFLPWKSLTSIIEYYCMWKTTD [Y47C] here?
Answer: Its abundance fitness is -0.187 ± 0.24.

Question: With RDEMEEWSASEASLFEEALEKYGKDFNDIRQDFLPWKSLTSIIEYYKMWKTTD [Y47K] as the variant, how does the abundance fitness read?
Answer: The abundance fitness was 0.375 ± 0.23.

Question: For RDEMEEWSASEASLFEEALEKYGKDFNDIRQDFLPWKSGTSIIEYYYMWKTTD [L39G], which abundance fitness is on record?
Answer: Its abundance fitness is -0.896 ± 0.17.

Question: Which abundance fitness does the source give for RDEMEEWSASEASLFEEALEKYGKDFNDIRQDFLPWKSRTSIIEYYYMWKTTD [L39R] here?
Answer: Its abundance fitness is -0.348 ± 0.081.

Question: Which abundance fitness does the source give for RDEMEEWSASEASLMEEALEKYGKDFNDIRQDFLPWKSLTSIIEYYYMWKTTD [F15M] here?
Answer: The abundance fitness was -0.528 ± 0.087.

Question: Which abundance fitness does the source give for RDEMEEWSASEASLEEEALEKYGKDFNDIRQDFLPWKSLTSIIEYYYMWKTTD [F15E] here?
Answer: The abundance fitness was -0.695 ± 0.24.

Question: For RDEMEEWSASEASLWEEALEKYGKDFNDIRQDFLPWKSLTSIIEYYYMWKTTD [F15W], which abundance fitness is on record?
Answer: The abundance fitness was -1.02 ± 0.24.

Question: With RDEMEEWSASEASLFEEALEKYGKDFNDIRQDFLPWKSLTSIIEYYYMWKATD [T51A] as the variant, how does the abundance fitness read?
Answer: The abundance fitness was 0.185 ± 0.11.

Question: Which abundance fitness does the source give for RDEMEEWSASEASLFEEALEKYGKDFNDIRQDFLPWKSLTSIIEYYYMWKYTD [T51Y] here?
Answer: The abundance fitness was 0.304 ± 0.12.

Question: Which abundance fitness does the source give for RDKMEEWSASEASLFEEALEKYGKDFNDIRQDFLPWKSLTSIIEYYYMWKTTD [E3K] here?
Answer: Its abundance fitness is 0.566 ± 0.19.

Question: With RDNMEEWSASEASLFEEALEKYGKDFNDIRQDFLPWKSLTSIIEYYYMWKTTD [E3N] as the variant, how does the abundance fitness read?
Answer: Its abundance fitness is 0.993 ± 0.19.

Question: With RDWMEEWSASEASLFEEALEKYGKDFNDIRQDFLPWKSLTSIIEYYYMWKTTD [E3W] as the variant, how does the abundance fitness read?
Answer: Its abundance fitness is -0.873 ± 0.46.

Question: For RDEMEEWSASEPSLFEEALEKYGKDFNDIRQDFLPWKSLTSIIEYYYMWKTTD [A12P], which abundance fitness is on record?
Answer: The abundance fitness was -0.805 ± 0.15.

Question: For RSEMEEWSASEASLFEEALEKYGKDFNDIRQDFLPWKSLTSIIEYYYMWKTTD [D2S], which abundance fitness is on record?
Answer: The abundance fitness was -0.249 ± 0.23.

Question: Which abundance fitness does the source give for RTEMEEWSASEASLFEEALEKYGKDFNDIRQDFLPWKSLTSIIEYYYMWKTTD [D2T] here?
Answer: Its abundance fitness is 0.271 ± 0.17.

Question: Which abundance fitness does the source give for RPEMEEWSASEASLFEEALEKYGKDFNDIRQDFLPWKSLTSIIEYYYMWKTTD [D2P] here?
Answer: The abundance fitness was -0.617 ± 0.49.

Question: Which abundance fitness does the source give for RDEMEEASASEASLFEEALEKYGKDFNDIRQDFLPWKSLTSIIEYYYMWKTTD [W7A] here?
Answer: Its abundance fitness is -0.51 ± 0.12.

Question: Which abundance fitness does the source give for RDEMEEWSASEASLFEEALEFYGKDFNDIRQDFLPWKSLTSIIEYYYMWKTTD [K21F] here?
Answer: The abundance fitness was -0.504 ± 0.16.

Question: For RDEMEEWSASEASLFEEALENYGKDFNDIRQDFLPWKSLTSIIEYYYMWKTTD [K21N], which abundance fitness is on record?
Answer: Its abundance fitness is -0.984 ± 0.35.

Question: Which abundance fitness does the source give for RDEMEEWSASEASLFEEALEVYGKDFNDIRQDFLPWKSLTSIIEYYYMWKTTD [K21V] here?
Answer: The abundance fitness was -0.444 ± 0.13.

Question: For RDEMEEWSASEASLFEDALEKYGKDFNDIRQDFLPWKSLTSIIEYYYMWKTTD [E17D], which abundance fitness is on record?
Answer: Its abundance fitness is -0.477 ± 0.28.

Question: Which abundance fitness does the source give for RDEMEEWSASEASLFESALEKYGKDFNDIRQDFLPWKSLTSIIEYYYMWKTTD [E17S] here?
Answer: The abundance fitness was -0.428 ± 0.073.
